In the supplement of paper PMC10126150:
± gives the standard deviation of the averaged measurements.

System: ATP
Assay: switch fluorescence ratio, 500 uM ATP over buffer (Cy3 cluster intensity, sum of 5 cycles each) (fold (ratio)); higher = stronger signal-on switching upon ATP binding; sequences stand for … in TCGTCGGCAGCGTCAGATGTGTATAAGAGACAGTTTTTTTTTTTTTTTTTTTTTTTTT…TC
Details: aptamer strand: ATP DNA aptamer (quencher-CACCTGGGGGAGTATTGCGGAGGAAGG + anchor), 100 nM annealed; ATP concentration: 500 uM
Summary of the method: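 The fluorescence ratio divides summed target-cycle Cy3 intensity by summed buffer-cycle Cy3 intensity for each cluster and is averaged per switch-domain sequence. Cy3-labelled switching-strand clusters on a modified Illumina MiSeq flow-cell were annealed to 100 nM quencher-labelled ATP aptamer, then imaged in selection buffer and again after 15 min with 500 uM ATP at 22 °C. Five such cycles were run, with NaOH stripping and re-annealing between them, and clusters outside 100-1000 RFU were excluded.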
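Note: ATP exposure 15 min at 22 °C before imaging.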

Row | Sequence | switch fluorescence ratio
1 | TGTTACTACG | 1.0494 ± 0.00016
2 | TGTTACTAGC | 1.03 ± 0.0034
3 | TGTTAGCCGA | 1.02 ± 0.026
4 | TGTTAGCCTT | 1.04 ± 0.017
5 | TGTTAGTTTG | 0.981 ± 0.029
6 | TGTTATATTA | 1.01 ± 0.034
7 | TGTTATTGGG | 0.987 ± 0.042
8 | TGTTCGCATG | 1.08 ± 0.032
9 | TGTTCTAGGT | 1.014 ± 0.0018
10 | TGTTCTTAAG | 0.975 ± 0.022
11 | TGTTGAAAGG | 0.995 ± 0.046
12 | TGTTGAAGAT | 1.005 ± 0.0076
13 | TGTTGATA | 0.968 ± 0.016
14 | TGTTGCCGGG | 1.0541 ± 0.00067
15 | TGTTGCGGGC | 1 ± 0.12
16 | TGTTGCTTCG | 1.03 ± 0.042
17 | TGTTGGAAGG | 1.01 ± 0.014
18 | TGTTGGCACA | 1.015 ± 0.0012
19 | TGTTGGGGTA | 1.03 ± 0.06
20 | TGTTGGGTGG | 0.9948 ± 0.00021
21 | TGTTGGTAGG | 0.964 ± 0.03
22 | TGTTGTAAAC | 1.05 ± 0.032
23 | TGTTGTAGCT | 1.02 ± 0.031
24 | TGTTGTGACA | 0.967 ± 0.026
25 | TGTTGTGGGT | 1.002 ± 0.0063

Row | Sequence | switch fluorescence ratio
26 | TGTTGTTAAA | 0.982 ± 0.012
27 | TGTTGTTGAT | 0.985 ± 0.036
28 | TGTTTAAATT | 0.983 ± 0.013
29 | TGTTTAAGCG | 0.958 ± 0.085
30 | TGTTTAAGGT | 0.9871 ± 0.0045
31 | TGTTTATGAG | 0.9849 ± 0.0034
32 | TGTTTATGGT | 1.02 ± 0.017
33 | TGTTTCAATT | 1.02 ± 0.021
34 | TGTTTCGACG | 0.986 ± 0.038
35 | TGTTTGATGT | 0.983 ± 0.019
36 | TGTTTGGGAG | 1.01 ± 0.031
37 | TGTTTGTATC | 1.01 ± 0.016
38 | TGTTTGTGGC | 1.12 ± 0.16
39 | TGTTTTATCG | 0.999 ± 0.028
40 | TGTTTTATG | 1.007 ± 0.0086
41 | TGTTTTCGCT | 0.9969 ± 0.0097
42 | TGTTTTCGT | 1.02 ± 0.011
43 | TGTTTTGACG | 1.07 ± 0.085
44 | TGTTTTGAGC | 1 ± 0.037
45 | TGTTTTTAAT | 0.99 ± 0.025
46 | TGTTTTTGGA | 1 ± 0.026
47 | TTAAAAAAAT | 1.73 ± 1.4
48 | TTAAAAAACT | 1.02 ± 0.031
49 | TTAAAAATAG | 0.976 ± 0.027
50 | TTAAAAATGG | 1.02 ± 0.018

Row | Sequence | switch fluorescence ratio
51 | TTAAAAGGGT | 0.99 ± 0.013
52 | TTAAAAGTTG | 1.051 ± 0.0097
53 | TTAAAATATA | 0.984 ± 0.059
54 | TTAAAATCCT | 1.12 ± 0.11
55 | TTAAACGAGT | 0.997 ± 0.017
56 | TTAAAGAGGG | 0.974 ± 0.054
57 | TTAAAGCACT | 1.19 ± 0.2
58 | TTAAAGCGGC | 0.993 ± 0.083
59 | TTAAAGCGTG | 0.969 ± 0.011
60 | TTAAAGGAGG | 1.02 ± 0.044
61 | TTAAAGGCTT | 0.997 ± 0.019
62 | TTAAAGGGA | 1.01 ± 0.022
63 | TTAAAGGGGA | 1.04 ± 0.049
64 | TTAAAGGGTG | 1.08 ± 0.048
65 | TTAAAGGTTT | 1.01 ± 0.018
66 | TTAAAGTGTT | 1.09 ± 0.16
67 | TTAAAGTTTT | 1.01 ± 0.032
68 | TTAAATTATT | 0.984 ± 0.024
69 | TTAAATTCAT | 0.97175 ± 0.0009
70 | TTAAATTTCT | 1.02 ± 0.0034
71 | TTAAATTTTA | 1.01 ± 0.019
72 | TTAACAATCG | 1.02 ± 0.02
73 | TTAACATATA | 1.017 ± 0.0088
74 | TTAACCAGTC | 1.04 ± 0.022
75 | TTAAGAAAAG | 1.1 ± 0.065

Row | Sequence | switch fluorescence ratio
76 | TTAAGAAGCG | 1.01 ± 0.06
77 | TTAAGAGACA | 1.03 ± 0.033
78 | TTAAGAGATA | 0.989 ± 0.018
79 | TTAAGAGGG | 0.987 ± 0.014
80 | TTAAGAGGGG | 0.975 ± 0.042
81 | TTAAGAGGGT | 0.997 ± 0.015
82 | TTAAGATAGG | 1.01 ± 0.025
83 | TTAAGATGTA | 1.01 ± 0.039
84 | TTAAGATGTT | 0.993 ± 0.016
85 | TTAAGCAACA | 1.13 ± 0.018
86 | TTAAGCGGCC | 1.067 ± 0.0072
87 | TTAAGCTGAA | 0.961 ± 0.044
88 | TTAAGGACTT | 1.01 ± 0.011
89 | TTAAGGATAC | 1.15 ± 0.21
90 | TTAAGGCACG | 0.999 ± 0.017
91 | TTAAGGCATG | 0.997 ± 0.018
92 | TTAAGGGAAG | 1.02 ± 0.036
93 | TTAAGGGCAT | 1 ± 0.015
94 | TTAAGGGCGC | 1 ± 0.084
95 | TTAAGGGGTA | 1 ± 0.019
96 | TTAAGGTAAA | 1.01 ± 0.049
97 | TTAAGGTCGT | 0.995 ± 0.034
98 | TTAAGTACGC | 1.29 ± 0.014
99 | TTAAGTCTTC | 0.964 ± 0.039
100 | TTAAGTGGCT | 1.016 ± 0.0095
